Source: publication PMC7360973, “Feedback regulation of heat shock factor 1 (Hsf1) activity by Hsp70‐mediated trimer unzipping and dissociation from DNA” (The EMBO Journal, 2020)
Where a chain is given by its changes, count along the chain named. Names may count otherwise. Values belong to the binder of their own block, whether it stands above or below them. Ends that are not written are not given here.

Experiments:
Human Hsc70 (HSPA8) [1] = target: T1, Human Hsc70 (HSPA8) (human, UniProt P11142 1-646); experiment: fluorescence polarisation; fluorescein-labelled peptide at 1 μM titrated with Hsc70 (0–60 μM), 2 h at 25°C, HKM150 buffer (25 mM HEPES/KOH pH 7.6, 150 mM KCl, 5 mM MgCl2); Hsc70 concentrated in the presence of 1 mM ATP; quadratic fit; conditions: both partners purified
T1 construct: Hsc70 (HSPA8), constitutive Hsp70, human, wild type; In the functional rows from MEF and HeLa cells the Hsc70/Hsp70 is the cells' own; this molecule stands for it there; source: E. coli BL21 (DE3) Rosetta, purified (Ni-IDA, Ulp1 cleavage, reverse Ni-IDA)
T1 sequence (P11142 whole entry): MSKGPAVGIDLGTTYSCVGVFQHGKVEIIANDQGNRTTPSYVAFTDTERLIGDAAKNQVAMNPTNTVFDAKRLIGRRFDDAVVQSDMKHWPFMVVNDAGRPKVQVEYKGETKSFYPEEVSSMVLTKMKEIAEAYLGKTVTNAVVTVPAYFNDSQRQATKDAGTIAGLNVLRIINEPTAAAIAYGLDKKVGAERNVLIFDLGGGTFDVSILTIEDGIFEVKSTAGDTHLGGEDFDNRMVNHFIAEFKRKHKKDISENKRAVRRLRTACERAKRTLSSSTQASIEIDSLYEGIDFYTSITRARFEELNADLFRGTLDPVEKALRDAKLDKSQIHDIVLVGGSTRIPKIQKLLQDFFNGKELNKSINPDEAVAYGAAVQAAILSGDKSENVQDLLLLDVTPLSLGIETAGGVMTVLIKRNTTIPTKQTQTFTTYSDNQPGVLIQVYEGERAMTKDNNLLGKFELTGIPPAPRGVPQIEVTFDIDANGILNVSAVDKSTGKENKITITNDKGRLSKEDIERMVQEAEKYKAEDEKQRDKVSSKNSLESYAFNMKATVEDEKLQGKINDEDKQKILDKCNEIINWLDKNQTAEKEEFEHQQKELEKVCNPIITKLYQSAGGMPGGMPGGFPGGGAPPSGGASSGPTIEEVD

[2] = target: the molecule itself; experiment: native gel or EMSA; blue-native PAGE (8% gel, on ice) of purified Hsf1 wild type or variants, also after 10 min at 4–42°C (5 μM protein); Coomassie stain or immunoblot with Hsf1 antiserum
[3] = target: the molecule itself; experiment: SEC + native gel or EMSA; trimer-to-monomer ratio of freshly purified Hsf1 in the absence of heat shock, by gel filtration (Superdex 200) and BN-PAGE
Human Hsc70 (HSPA8) [4] = target: T1, Human Hsc70 (HSPA8); experiment: HDX-MS; 6 μM Hsf1 (monomer or trimer) pre-incubated 30 min at 25°C with 12 μM Hsc70 or 9 μM DnaJB1 in 25 mM HEPES/NaOH pH 7.5, 150 mM NaCl, 10% glycerol, 2 mM DTT; diluted 10-fold in D2O buffer, 30 s at 25°C; online pepsin digestion; conditions: both partners purified
[5] = target: the molecule itself; experiment: native gel or EMSA; blue-native PAGE of lysates (15 μg total protein) of transfected HSF1−/− MEFs, immunoblot with Hsf1 antiserum

binding result (Human Hsc70 (HSPA8) [1]): binds
B2: Hsf1 peptide G204‐N214‐C (peptide)
peptide: GVKRKIPLMLNC(fluorescein‑5‑maleimide)
notes: Hsf1, human, residues 204-214; C-terminal cysteine for labelling, not part of the Hsf1 stretch

binding result (Human Hsc70 (HSPA8) [4]): binds
B5: Human heat shock transcription factor 1 (Hsf1), wild type (natural protein, UniProt Q00613 1-529, looked up)
chain: MDLPVGPGAAGPSNVPAFLTKLWTLVSDPDTDALICWSPSGNSFHVFDQGQFAKEVLPKYFKHNNMASFVRQLNMYGFRKVVHIEQGGLVKPERDDTEFQHPCFLRGQEQLLENIKRKVTSVSTLKSEDIKIRQDSVTKLLTDVQLMKGKQECMDSKLLAMKHENEALWREVASLRQKHAQQQKVVNKLIQFLISLVQSNRILGVKRKIPLMLNDSGSAHSMPKYSRQFSLEHVHGSGPYSAPSPAYSSSSLYAPDAVASSGPIISDITELAPASPMASPGGSIDERPLSSSPLVRVKEEPPSPPQSPRVEEASPGRPSSVDTLLSPTALIDSILRESEPAPASVTALTDARGHTDTEGRPPSPPPTSTPEKCLSVACLDKNELSDHLDAMDSNLDNLQTMLSSHGFSVDTSALLDLFSPSVTVPDMSLPDLDSSLASIQELLSPQEPPRPPEAENSSPDSGKQLVHYTAQPLFLLDPGSVDTGSNDLPVLFELGEGSYFSEGDGFAEDPTISLLTGSEPPKAKDPTVS
notes: heat shock transcription factor 1 (Hsf1), human, wild type; Purified both as a monomer and as a trimer; One molecule is used for both states; the assay's format tells which was used; also called Hsf1wt; wt; source: E. coli BL21 (DE3) Rosetta, purified (Ni-IDA, Ulp1 cleavage, Superdex 200); monomeric and trimeric fractions collected separately; not shown: His6-SUMO, N-terminal, cleaved

binding result (Human Hsc70 (HSPA8) [1]): binds
B7: Hsf1 peptide N200‐K208‐C (peptide)
peptide: NRILGVKRKC(fluorescein‑5‑maleimide)
notes: Hsf1, human, residues 200-208; C-terminal cysteine for labelling, not part of the Hsf1 stretch

Further lines, the binder ahead of its results:

B1: Hsf1 peptide Y468‐S480‐C (peptide)
peptide: YTAQPLFLLDPGSC(fluorescein‑5‑maleimide)
notes: Hsf1, human, residues 468-480 (in the TAD); C-terminal cysteine for labelling, not part of the Hsf1 stretch
binding result (Human Hsc70 (HSPA8) [1]): binds

B3: Hsf1∆(202–213) (natural protein, human, UniProt Q00613 1-529, looked up)
chain: MDLPVGPGAAGPSNVPAFLTKLWTLVSDPDTDALICWSPSGNSFHVFDQGQFAKEVLPKYFKHNNMASFVRQLNMYGFRKVVHIEQGGLVKPERDDTEFQHPCFLRGQEQLLENIKRKVTSVSTLKSEDIKIRQDSVTKLLTDVQLMKGKQECMDSKLLAMKHENEALWREVASLRQKHAQQQKVVNKLIQFLISLVQSNRNDSGSAHSMPKYSRQFSLEHVHGSGPYSAPSPAYSSSSLYAPDAVASSGPIISDITELAPASPMASPGGSIDERPLSSSPLVRVKEEPPSPPQSPRVEEASPGRPSSVDTLLSPTALIDSILRESEPAPASVTALTDARGHTDTEGRPPSPPPTSTPEKCLSVACLDKNELSDHLDAMDSNLDNLQTMLSSHGFSVDTSALLDLFSPSVTVPDMSLPDLDSSLASIQELLSPQEPPRPPEAENSSPDSGKQLVHYTAQPLFLLDPGSVDTGSNDLPVLFELGEGSYFSEGDGFAEDPTISLLTGSEPPKAKDPTVS
notes: source: E. coli BL21 (DE3) Rosetta, purified (Ni-IDA, Ulp1 cleavage, Superdex 200); not shown: His6-SUMO, N-terminal, cleaved
binding result [2]: binds

B4: Hsf1‐I190S,I194S (natural protein, human, UniProt Q00613 1-529, looked up)
chain: B5 chain with I190S, I194S
notes: Hsf1, human, with I190S and I194S in HR-B; source: purified (gel filtration)
stoichiometry N [3]: 3

B6: Hsf1‐I202S,L203S,V205S expressed from pIRES‐HSF1‐I202S,L203S,V205S_hrGFP in cells (natural protein, human, UniProt Q00613 1-529, looked up)
chain: B5 chain with I202S, L203S, V205S
notes: Hsf1, human, with I202S, L203S, V205S; source: HSF1−/− MEF or HeLa, transiently transfected, in lysate or in cells
stoichiometry N [5]: 3

B8: Hsf1 peptide S461‐Q471‐C (peptide)
peptide: SGKQLVHYTAQC(fluorescein‑5‑maleimide)
notes: Hsf1, human, residues 461-471 (in the TAD); C-terminal cysteine for labelling, not part of the Hsf1 stretch; also called residues 461–471
Kd (Human Hsc70 (HSPA8) [1]): 5 to 30 µM
